Source: the DeepSol protein solubility set

Experiment: soluble on expression in E. coli; label from the status in PepcDB or PDB records

Sequence	soluble on expression in E. coli
MAHHHHHHMARSLQDPRLSFYCEQYDHIAHRMNHYVLQFYFEDRTVEIREVTKNRLHLKRAHFPHLNRDDFKVGSSLSLLGGVIKLTAYADEVTRELCGERGEVTAVMFGEQLLPQLGRCLAVLTEECGFVALEMQMAWLPVETAAAYGVPPDLVEGRIVVVKCANTNALQRGIDFMARMPGARAAESVEEVGRWEQIVEKAKEQPVAILGDPNSTVVIIKPHALQKLAGGVIVQQLIDAGLEISGISLTNMTSQQANELLKPYKGVLPDFPDTMRSLMGTVWVLQFVSLDEGVDVVSVAREVCGPFDPVIAKELRPTSIRARFGVDRAHNAVHCCDLHEEGPLYSNFFFRPEDVDE	not soluble
MGSDKIHHHHHHMSHGAIKHHRHRGRVMYHLRVPESAEDLDAYYQFRWEMLRKPLHQPLGSERDAYDALAHHQTVVDEQGRLVAIGRLSINADNEAAIRFLAVHPDLRGKGLGTLLAITLESVARQEGVKRVVCSAREDAMDFFSKLGFVNQGEISAPQTTPVRHFLMIKPVATLDDILHRADWCGQLQQAWYDHIPLSEKMGVRISQYTGKKFITTMPEAGNQNPHHTLFAGSMFSLATLTGWGLIWLLLRERHLGGTIILADAHIRYSTPVSGRPSAIADLGSLSGDLDRLARGRKARVQLNVELFGDDNKGALFEGVYIVLPAQPDAPLEEGGSEVD	not soluble
MELTLQKYGSYEKFEQATGGSLLSKTRIWSHVRKYMVKEGCLGEIVVHLTEDLLSRASMTVVNGCPTLTINISTAREHWLEGMLRHEIGTHYFRGINNLQQPWNSWIGRKKHELKPNNPTEEGLASIHSVLFRKDPFLWRAALLYYTVYKASHMSFCELFKDIGKFVKDPNTRWDYCVRAKRGWTDTSEPGCFSKDQVYLDGVLQILRFRESIDFHLLTALGKVSYEDVDRLKELAVTENMRVPHFLHDHSRYMEHLERIMEVNELTDAELKNLI	not soluble
MSGSHHHHHHSSGIEGRSEVVMENVTAFWEEGFGELFEKAKQNNNNRKTSNGDDSLSFSNFSLLGTPVLKDINFKIERGQLLAVAGSTGAGKTSLLMMIMGELEPSEGKIKHSGRISFCSQFSWIMPGTIKENIIFGVSYDEYRYRSVIKACQLEEDISKFAEKDNIVLGEGGITLSGGQRARISLARAVYKDADLYLLDSPFGYLDVLTEKEIFESCVCKLMANKTRILVTSKMEHLKKADKILILHEGSSYFYGTFSELQNLQPDFSSKLMGCDSFDQFSAERRNSILTETLHRFSLEGDAPVSGGGGSGGGGSGGQMTVKDLTAKYTEGGNAILENISFSISPGQRVGLLGRTGSGKSTLLSAFLRLLNTEGEIQIDGVSWDSITLQQWRKAFGVIPQKVFIFSGTFRKNLDPYEQWSDQEIWKVADEVGLRSVIEQFPGKLDFVLVDGGCVLSHGHKQLMCLARSVLSKAKILLLDQPSAHLDPVTYQIIRRTLKQAFADCTVILCEHRIEAMLECQQFLVIEENKVRQYDSIQKLLNERSLFRQAISPSDRVKLFPHRNSSK	soluble
SLNRLFKRYSQQVQLILEATRAIGDGNLKERIDTNQVQEELNDIASAINFMVDSLDQYIHDIYTLEIKQRDAHMRALQSQINPHFLYNTLEYIRMYALSRQQEELADVVYAFSTLLRNNINQEKTTTLAEEISFCEKYVYLYQMRYPDQFAYKFEIEETIADVEIPKFIIQPLVENYFVHGIDYQRQDNAIKVHAYREGEKIIVAVVDNGKGITANRLEEIRERLNQTEIDTEQSIGLRNVHERLQRFFGESYGLTIEGKEGEGTTIRLSFVA	soluble
VVDFGALPPEINSARMYAGPGSASLVAAAKMWDSVASDLFSAASAFQSVVWGLTTGSWIGSSAGLMVAAASPYVAWMSVTAGQAELTAAQVRVAAAAYETAYGLTVPPPVIAENRAELMILIATNLLGQNTPAIAVNEAEYGEMWAQDAAAMFGYAATAATATEALLPFEDAPLITNPGGLLEQAVAVEEAIDTAAANQLMNNVPQALQQLAQPTKSIWPFDQLSELWKAISPHLSPLSNIVSMLNNHVSMTNSGVSMASTLHSMLKGFAPAAAQAVETAAQNGVQAMSSLGSQLGSSLGSSGLGAGVAANLGRAASVGSLSVPQAWAAANQAVTPAARALPLTSLTSAAQTAPGHMLGGLPLGQLTNSGGGFGGVSNALRMPPRAYVMPRVPAAG	soluble
MIAHSVDDPFYYLHNFRQVVLWVEQRYQDLLDDQELAFIRAFSQLQAPAQALMVRMVMRKGELFRSDRLDYAEIGDTALALQPLLALGWVREPEQLDLEQLFALLRKEELARCFARQLNRPRAAKHELLAQLQPLALAARSLVEWFPDSDVRILQWCLQPLCDRIRLLFFGNLYQDWSDFVLADLGLLRYEQVPFSPDSRALQQRDDVDLAMALHHCAERLEQGGDPLPILATLQGLHSSNPWLARRHARLQFAVGQQCERLGEWDLATAVYAQCNHPQARIRQVRVLERSEQWHQAHARALQLAAAPANALEEQALQRMLPRLARKLGGPPQRRQRTTPLELIELELPRGDAALGVEEAVRQHLMQEGGQAHYVENTLFNSLFGLLCWEAIFAPVPGAFFNPFQAAPQDLHDSDFQQRRSALFERCLGRLDEGSHRQAILDCYVAKQGLQSPFVSWSMLSEELLEQALACLPAAALKQCFLRLLQDIRSNRAGMPDLIQFWPEQGRYRMVEVKGPGDRLQDNQLRWLAFCRQHGLPVAVCHVRWSET	not soluble
MGSDKIHHHHHHMTSGLHISTSFDSGAIEVDALDHADDIRLRIRADSHADFRQWFHFRLQGAAGQACRLQFLNAGDCTYPDGWRDYRAVASYDRANWFRVPTRFDGQVLTVEFTPQHDSVWFAYFEPYPEERHLSLLATCQRSPLAKLSHLGSTVDGRDMTRVTVGQPGPGKKTIWMIARQHPGESMAEWFCEGVLQRLTGTGMWAHDPVARKLLESAVFHIVPNMNPDGSARGNLRTNAAGANLNREWMTPSPETSPEVWHVRRAIEATGCDLFFDIHGDEGLPYNFVAGSEMLPSFSEKQREEQTRFIEAFKRVTPDFQDVHGYAASKYNADALKLASKYVGHTFGCLSLTLEMPFKDNADLPDATVGWNGARSALLGTAMLEAILNFLG	not soluble
MTNMDNYCVIMGGGIGSRFWPFSRKTLPKQFLDFFGTGRSLLQQTFDRFQKVIPTENILIVTNAMYADLVKEQLPELDEKQILLEPARRNTAPCIAWAAYHIRALNPNANIVVAPSDHLILKEEEFRAAIIKGLEFVSHSEKLLTLGIKPNRPETGYGYIQIDEPTGDGFYKVKTFTEKPELELAKVFVESGEFYWNSGLFMWNVNTIIKAAEILLPELVSKLAPGKNIYATDKEKAFIEENFPACPNVSIDFGIMEKADNVYVSLGDFGWSDLGTWGSLYDLSERDREGNVTLKSHSLIYNGKDNMIVLPKGKLAVIDGLEGYLIAESDNVLLICRKDEEHSIRKYVNDAQMQLGDDFI	not soluble
MSFEKLQKELHEAIEGVNRYNPENVADLAACVQAMVNENKYDKDIVLTILKLYQLNPEKYDEAVVRQVLLKTLMVLPSSDFALAKCLIDTNRLGSQELRRIFDLGAVLESCNFAVFWKLVKGAYKPTTNPNEPFKVPGEVPKMIKPMVGFEDAVKHYACRVISVTFQKIEKKMLSRLLGGASDKEVTALAQSFGWEAKENGDVFFVANHEGTIKTRNIDEKIQFPHVADLLTSIQPPLTL	not soluble
MRVVAEDLWFPEGPVWVGDGSLLVVEIRRKTLTRIFPDGRKHIVAELGGGPNGAAMGPDGYCYVANNGGFAFRQREDGRWVTSGTPEDYRTGRIERVDIETGKVEVLYDRIDGRNIRGPNDLVIDAAGGIWFTDPGKTRHRDWDRGSICYATIDGSHIEEKVFPIHKPNGIGLSPDGRTLYVAETETARLWAWDLAGPGRLAAPAAASPASPHGSRLAYASPVYQRFDSLAVQADGAVAIGTLDRGGITTVRPDGSASFVPVAGDTHITNLCFGGEGMRKAYVTQSYAGRLVEIDWASPGLRLFEILEHHHHHH	not soluble
MSHSAKKALLPLLAVATLAGLAGCATETSTALPVQQVESVNRPYSGVRSPIAVGKFDNRSSYMRGIFSDGVDRLGGQAKTILITHLQQTNRFNVLDRDNMSEIQQEAAIKGQAQRLKGADYVVTGDVTEFGRKEVGDRQLFGILGRGKSQIAYAKVALNIVNISTSEVVYSTQGAGEYALSNREVIGFGGTASYDSTLNGKVLDLAMREAVNKLVNAVDSGAWKPQNQ	not soluble
MGSDKIHHHHHHMRSDVIKKGLERVPHRSLLKALGITDDEMRRPFIGIVSSWNEIIPGHVHLDKVVEAVKAGVRMAGGVPFVFPTIGICDGIAMDHRGMKFSLPSRELIADSIEIVASGFPFDGLVFVPNCDKITPGMMMAMGRLNIPSVLISGGPMLAGRYNGRDIDLITVFEAVGGYKVGKVDEETLKAIEDLACPGAGSCAGLFTANTMNSLAEALGIAPRGNGTVPAVHAKRLRMAKEAGMLVVELVKRDVKPRDIVTLDSFMNAVMVDLATGGSTNTVLHLKAIAESFGIDFDIKLFDELSRKIPHICNISPVGPYHIQDLDDAGGIYAVMKRLQENGLLKEDVMTIYLRKIGDLVREAKILNEDVIRPFDNPYHKEGGLGILFGNLAPEGAVAKLSGVPEKMMHHVGPAVVFEDGEEATKAILSGKIKKGDVVVIRYEGPKGGPGMREMLSPTSAIVGMGLAEDVALITDGRFSGGSHGAVIGHVSPEAAEGGPIGIVKDGDLIEIDFEKRTLNLLISDEEFERRMKEFTPLVKEVDSDYLRRYAFFVQSASKGAIFRKP	not soluble
MLAAAHKAGGTFAAESILILRNRLSGVADILADFPDDVPVYVAEAPVLDGIVGFHLHRGILALGRRVRDDGLEQMTAALPASSLVLVGCGISNHDNLGAMFRNAAAFYADAVLLDETCCDPLYRKALRVSVGSVLSVPYHRGGGAVEMLERLSEEGFAIWGLSPDGKTEIRDIPRSERMALVIGTEGEGLPQSVLSRFQTARIAQSPQVDSLNAGTASGLALYQMAGVMGRV	not soluble
GPGSMYPGAVGCPWRRLDACVETSYSWALNVMSTNTSKAAVRQSKLTWDEGELTSARLKNDRNGKKARISASGSFRIRAMILACAPSSLAATPADNLPETASTLSFCEMLFNAGVAPLKTPAISSFEACTDVRVCVEAFKTGMPLFSSADEGASGNFFRYPPAAITTACSAETKLIDQSCFTRTTPFRHMGNAA	not soluble
MKIGFFTDTYFPQVSGVATSIKTLKDELEKHGHEVYIFTTTDPNATDFEEDVIRMPSVPFVSFKDRRVVVRGMWYAYLIAKELELDLIHTHTEFGAGILGKMVGKKMKIPVIHTYHTMYEDYLHYIAKGKVVRPSHVKFFSRVFTNHTTGVVCPSERVIEKLRDYGVTAPMRIIPTGIEIDKFLRPDITEEMIAGMRQQLGIEEQQIMLLSLSRISYEKNIQAIIQGLPQVIEKLPQTRLVIVGNGPYLEDLKELAEELEVSEYVQFTGEVPNEEVAIYYKAADYFVSASTSETQGLTYTEAMAAGVQCVAEGNAYLNNLFDHESLGKTFKTDSDFATTLIDYIQANIKMDQTILDEKLFEISSTNFGNKMIEFYQDTLIYFDQLQMEKENADSIKKIKVKFTSLRKLEHHHHHH	soluble
SNAMLGGIEAGGTKFVCAVGREDGTIIDRIEFPTKMPDETIEKVIQYFSQFSLQAIGIGSFGPVDNDKTSQTYGTITATPKAGWRHYPFLQTVKNEMKIPVGFSTDVNAAALGEFLFGEAKGLDSCLYITIGTGIGAGAIVEGRLLQGLSHPEMGHIYIRRHPDDVYQGKCPYHGDCFEGLASGPAIEARWGKKAADLSDIAQVWELEGYYIAQALAQYILILAPKKIILGGGVMQQKQVFSYIYQYVPKIMNSYLDFSELSDDISDYIVPPRLGSNAGIIGTLVLAHQALQAEAASGEVRS	soluble
MILGIDIGGANTKITELHENGEFKVHHLYFPMWKNNDKLAEVLKTYSNDVSHVALVTTAELADSYETKKEGVDNILNAAESAFGSNISVFDSNGNFISLESAKTNNMKVSASNWCGTAKWVSKNIEENCILVDMGSTTTDIIPIVEGKVVAEKTDLERLMNHELLYVGTLRTPISHLGNTISFKGVDTNVSSEYFAITADISVVLEKVTTEEYTCDTPDGKGTDKRSSLVRISKVLCSDLDQISEIDAENIAKNYYELWKELILENVENVAEKYGSKKVVITGLGENILKDALADFEVISVAERYGKDVSLATPSFAVAELLKNELLEHHHHHH	soluble
